Results taken from the supplement of paper PMC10567573.

Assay: protein stability index of a GFP-peptide fusion (GPS, HEK-293T) (PSI 1-6); higher = more stable
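Also: lentivirally expressed fusions sorted by FACS into six bins by GFP to DsRed ratio, PSI derived from sequencing read proportions per bin multiplied by bin number.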

## LTLKVLRSSSCGDTELLGQATLPV
parent: IOH21460_59, c terminus: a fixed tail appended
  protein stability index: 2.3

## RFQDLVLRMLEYEPAARISPLGAL
parent: IOH14793_68, c terminus: a fixed tail appended
  protein stability index: 2.31

## YSSSKGSLRLCDMRAAALCDKHSK [PPP2R2C WT]
parent: IOH22415_38, c terminus: a fixed tail appended
  protein stability index: 1.74

## YQGPGTRRLQEVLGVQTGGPGGRR
parent: IOH14793_62, c terminus: a fixed tail appended
  protein stability index: 3.2

## FVLGKGRGAAAAGGPQRIPAHRFV
parent: IOH21551_13, c terminus: a fixed tail appended
  protein stability index: 1.88

## PSNRSFFSEIISSISDVKFSHSGR
parent: IOH22211_46, c terminus: a fixed tail appended
  protein stability index: 2.33

## FPELGYSYGGGSASSQHSEGSRSS
parent: IOH21682_93, c terminus: a fixed tail appended
  protein stability index: 3.14

## HVGELIIWDALDWTMQAYERNFWD
parent: IOH25728_41, c terminus: a fixed tail appended
  protein stability index: 2.32

## FVAFALCMFCLYSFMPLVIKVTSA
parent: IOH25755_45, c terminus: a fixed tail appended
  protein stability index: 2.87

## QYLAERYKVNTPMLQSFINYCLLF
parent: IOH25755_11, c terminus: a fixed tail appended
  protein stability index: 2.35

## YHEAPMTRKHYQVTGYGINGTGDS
parent: IOH22744_72, c terminus: a fixed tail appended
  protein stability index: 2.29

## FIGEESVAAGEKSILTDNPTWIID [IMPA1 WT]
parent: IOH21098_12, c terminus: a fixed tail appended
  protein stability index: 2.05

## VHTGCHKKLGPEARRPRTRWGKN
parent: IOH21711_9, c terminus: native
  protein stability index: 1.97

## VRSRLEEAGIKVHDVRLNGSAAGH
parent: IOH22484_10, c terminus: a fixed tail appended
  protein stability index: 2.22

## VTEDLRLKDWEHSIALRNISLAKG [SCARA5 WT]
parent: IOH23227_48, c terminus: a fixed tail appended
  protein stability index: 3.31

## EPAGSLRELGVWRSLLRLRATRAG
parent: IOH21460_10, c terminus: a fixed tail appended
  protein stability index: 2.6

## FCADNPSELPPPMERTGGIGDSRP
parent: IOH21682_16, c terminus: a fixed tail appended
  protein stability index: 4.54

## LLTITKAHSNAISNCCFTFSGHFL [WDR88 WT]
parent: IOH21600_45, c terminus: a fixed tail appended
  protein stability index: 3.1

## SDVVDWLYHNVEGFTDRREARKYA
parent: IOH21682_75, c terminus: a fixed tail appended
  protein stability index: 2.98

## FEDEVKRLGWQQQAELQELEERLQ [KIAA0774 WT]
parent: IOH21722_11, c terminus: a fixed tail appended
  protein stability index: 4.08

## KVVEAHKIVLCAVSHVFMLLFNVK
parent: IOH25836_45, c terminus: a fixed tail appended
  protein stability index: 2.49

## SFMPLVIKVTSATSVNLGILTADL
parent: IOH25755_47, c terminus: a fixed tail appended
  protein stability index: 2.79

## GVLILFLTFFAFLHCWLNAFAEML
parent: IOH22371_63, c terminus: a fixed tail appended
  protein stability index: 2.73

## STTEGIQLAKELGATYLELHSLDD
parent: IOH25836_27, c terminus: a fixed tail appended
  protein stability index: 3.48

## PSRVHASEVESAVWYVKKFGRYLE
parent: IOH22759_12, c terminus: a fixed tail appended
  protein stability index: 2.26

## HHHHGRDFLLRAASFDVCESVDEA
parent: IOH23244_56, c terminus: a fixed tail appended
  protein stability index: 3.72

## GGADIIVIKYNVNDKFSFHEVKDN
parent: IOH25836_16, c terminus: a fixed tail appended
  protein stability index: 2.19

## WTMQAYERNFWDPSPQLDTQQEIK
parent: IOH25728_43, c terminus: a fixed tail appended
  protein stability index: 2.62

## RVFKARIYTNRYETNEEDKTLQEI
parent: IOH22759_67, c terminus: a fixed tail appended
  protein stability index: 2.51

## AKAADSPTRNDLESGLGHFSLRVH
parent: IOH21711_5, c terminus: a fixed tail appended
  protein stability index: 3.12

## HPDPAPFCADNPSELPPPMERTGG
parent: IOH21682_15, c terminus: a fixed tail appended
  protein stability index: 2.73

## VYYIFERLCAPLFRNIKQEPFSAR
parent: IOH22371_57, c terminus: a fixed tail appended
  protein stability index: 2.19

## IVGFGLYGSIHGPTDYQVNIQIIE
parent: IOH21551_61, c terminus: a fixed tail appended
  protein stability index: 3.17

## VLRSRIRFIHLVTGCVLGSSGKVL
parent: IOH22744_79, c terminus: a fixed tail appended
  protein stability index: 2.76

## YGSIHGPTDYQVNIQIIEYEKKQT
parent: IOH21551_62, c terminus: a fixed tail appended
  protein stability index: 2.54

## YNPHPGFPELGYSYGGGSASSQHS
parent: IOH21682_92, c terminus: a fixed tail appended
  protein stability index: 2.58

## EGCGPPLRRWLRANLAASGGYAIA [TSPAN10 WT]
parent: IOH21852_47, c terminus: a fixed tail appended
  protein stability index: 1.89

## FFIRTSDSFDKFDFCEPSFVTGNC [PCMTD2 WT]
parent: IOH21782_22, c terminus: a fixed tail appended
  protein stability index: 2.15

## FDHLQNRLIATKNPEEIRGGGLLK
parent: IOH22484_38, c terminus: a fixed tail appended
  protein stability index: 3.8

## NQEITKAFHVRRTNRVKECLAKGT
parent: IOH23244_80, c terminus: a fixed tail appended
  protein stability index: 3.11

## LYTGELDENERDLMHIAHIAELLE
parent: IOH23244_73, c terminus: a fixed tail appended
  protein stability index: 2.54

## VKYNSCADRPFSAPWWFWLSLTGV
parent: IOH22744_36, c terminus: a fixed tail appended
  protein stability index: 2.7

## PSNGRIDIKQLIAKKIKLTAEAEE
parent: IOH22371_7, c terminus: a fixed tail appended
  protein stability index: 3.15

## DWRKNIEEKSGMEGRKKMFESES [TNNI2 WT]
parent: IOH23107_29, c terminus: native
  protein stability index: 2.45

## LARKGSLKNGSMGSPVNQQPKKNN [C9orf25 WT]
parent: IOH25834_6, c terminus: a fixed tail appended
  protein stability index: 4.65

## TSAEIELPDVEPAAFLALLRFLYS
parent: IOH21551_20, c terminus: a fixed tail appended
  protein stability index: 2

## KSAAMLAVFAVSAVVHEYALAVCL
parent: IOH22371_75, c terminus: a fixed tail appended
  protein stability index: 3.11

## RNTKRDVTLEASRENSKPRAILKP
parent: IOH22211_62, c terminus: a fixed tail appended
  protein stability index: 4.59

## LRGGGQVLLGWTLHYFPFFLMGRV
parent: IOH22744_107, c terminus: a fixed tail appended
  protein stability index: 2.33

## DSCCPAGIFQAMCLLICAEMYQVS
parent: IOH25836_81, c terminus: a fixed tail appended
  protein stability index: 3.09

## VSHVFMLLFNVKSPTDIQDSSIIR
parent: IOH25836_47, c terminus: a fixed tail appended
  protein stability index: 2.27

## DEIEFLKKLHEEELRDLQVSVESQ
parent: IOH21924_38, c terminus: a fixed tail appended
  protein stability index: 4.78

## RTFGPPPSLSPGAFSYSSSSRFSS
parent: IOH21924_4, c terminus: a fixed tail appended
  protein stability index: 3.3
